Measured values reported in article PMC4552821 (2015).
Where two headings read alike, the source gives them in different places.

Legend:
[1] = biological target: T1, kerateine (reduced hair keratin extract) (Homo sapiens, UniProt Q15323); experiment: SPR
[2] = biological target: T1, kerateine (reduced hair keratin extract); experiment: SPR; remark: listed apart in the source

Kd [1]: 0.11 µM
Kd [2]: 32 µM
B1: BMP-2 (protein)
chain: QAKHKQRKRLKSSCKRHPLYVDFSDVGWNDWIVAPPGYHAFYCHGECPFPLADHLNSTNHAIVQTLVNSVNSKIPKACCVPTELSAISMLYLDENEKVVLKNYQDMVVEGCGCR
